Assay results published in patent US20170283830A1.

Molecular target: CD117 (mast/stem cell growth factor receptor, proto-oncogene c-Kit protein) on CD117+ mouse bone marrow cells (mouse) (UniProt P05532)
Assay: cell-based or functional assay

Sequence of UniProt P05532 (P05532 25-979): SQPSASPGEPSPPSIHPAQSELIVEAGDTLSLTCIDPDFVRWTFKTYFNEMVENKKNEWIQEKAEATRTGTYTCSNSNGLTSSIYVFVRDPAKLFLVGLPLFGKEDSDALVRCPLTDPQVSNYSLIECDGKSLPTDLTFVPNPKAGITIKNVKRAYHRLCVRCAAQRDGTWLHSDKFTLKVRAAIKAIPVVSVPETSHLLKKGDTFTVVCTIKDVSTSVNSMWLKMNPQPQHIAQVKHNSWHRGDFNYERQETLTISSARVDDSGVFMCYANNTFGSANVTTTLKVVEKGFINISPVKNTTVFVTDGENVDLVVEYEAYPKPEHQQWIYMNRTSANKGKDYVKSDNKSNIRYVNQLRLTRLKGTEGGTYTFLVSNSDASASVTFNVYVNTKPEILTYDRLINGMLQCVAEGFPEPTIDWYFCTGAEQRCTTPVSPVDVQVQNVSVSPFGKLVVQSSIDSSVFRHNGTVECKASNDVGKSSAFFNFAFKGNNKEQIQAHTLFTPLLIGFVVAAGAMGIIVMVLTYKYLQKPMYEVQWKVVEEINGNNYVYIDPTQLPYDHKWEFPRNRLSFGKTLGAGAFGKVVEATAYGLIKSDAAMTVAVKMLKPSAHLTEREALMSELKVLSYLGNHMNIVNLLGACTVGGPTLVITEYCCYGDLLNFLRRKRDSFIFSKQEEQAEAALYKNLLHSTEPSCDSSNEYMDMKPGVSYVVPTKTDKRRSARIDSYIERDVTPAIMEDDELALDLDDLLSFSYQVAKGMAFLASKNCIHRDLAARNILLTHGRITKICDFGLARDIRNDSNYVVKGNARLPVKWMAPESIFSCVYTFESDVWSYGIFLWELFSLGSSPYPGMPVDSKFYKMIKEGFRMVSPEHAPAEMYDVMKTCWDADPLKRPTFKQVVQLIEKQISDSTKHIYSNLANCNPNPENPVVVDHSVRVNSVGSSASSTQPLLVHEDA

HDR activity in CD117+ cells (recombination between reporter gene constructs): 2 fold
γtcPNA4/donor DNA-mediated gene editing in CD117+ cells (% GFP expressing cells, flow cytometry): 15%
Substance: Recombinant murine SCF, catalog #250-03, PeproTech (from UniProt P20826 26-189) (ligand)
